# Measured values from the RNAGym collection of RNA variant scans (doi:10.1073/pnas.2313332121).
# This sample holds only a part of the variants without activity.
# B1: TPR 5TU (parent)
# chain: GGAUCUUCUCGAUCUAACAAAAAAGACAAAUCUGCCACAAAGCUUGAGAGCAUCUUCGGAUGCAGAGGCGGCAGCCUUCGGUGGCGCGAUAGCGCCAACGUUCUCAACUAUGACACGCAAAACGCGUGCUCCGUUGAAUGGAGUUUAUCAUG
# Variants of: B1
# Assay: polymerase ribozyme fitness, log enrichment relative to wild type (log ratio); higher = more active; in vitro selection for triplet polymerase activity
# In short: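 Mutant libraries for each subunit of a heterodimeric triplet polymerase ribozyme were made by PCR and then transcribed. Each library underwent one round of in vitro selection in triplicate: annealing with a biotinylated primer, the partner subunit and triplets, frozen incubation at −7 °C, gel excision of extended constructs, streptavidin-bead capture and RT-PCR. Input and output libraries were Illumina-sequenced, and only genotypes with ≥10 input reads and ≥1 read per output were kept. Fitness is the logarithm, base 2, of genotype enrichment over wild-type enrichment, computed from inverse-variance-weighted replicate averages.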
row,Variant,polymerase ribozyme fitness (log ratio)
1,A37U G50C U78C A98U U134C,≤ -4.2
2,C35U U56G U134A,-2.9
3,C36U C114U,-3.21
4,A39C G80A A97U G126U U144A,≤ -4.2
5,A37G C87U,-2.16
6,C38A U109A C114U C116G,≤ -4.2
7,A37U A89U U146A,-1.62
8,C36A A150U,-4.01
9,A37G C69G,-0.726
10,C38A A49C G67A C79G,≤ -4.2
11,A39G A47G G83A A142G,≤ -4.2
12,C38A G94A,-0.134
13,C38A G70A C85G U127C,≤ -4.2
14,A39C U44C C93U C108G A121C U139G,≤ -4.2
15,A37C G50U A52C U90C G94C C116U,≤ -4.2
16,C38A G50U,-0.722
17,A37G C93G A97C C116A,≤ -4.2
18,C38U G117U,0.325
19,C36U G143A,-2.3
20,C36U C87A G117U,≤ -4.2
21,A37C U55A,0.0873
22,C38G U45G U56A C93G C123A U127G,≤ -4.2
23,C38U G126U,-0.118
24,A37G C93U C116G,-2.65

row,Variant,polymerase ribozyme fitness (log ratio)
1,C36A C51U G68A C85G A97U,≤ -4.2
2,A37U A49U U55A U56A U127A,≤ -4.2
3,A37U A64C U135C,≤ -4.2
4,C38U G58A G86A C93U C96A C131A,-2.97
5,C38U C149U,-2.71
6,C36A G70U G80U C105U,-0.569
7,C36G C105U,-3.04
8,C36U A49U U82A A107C G133C,≤ -4.2
9,C36U C103G,-3.78
10,C38A C76A A97G U134G,-3.3
11,C36U A60G C87A G88C G141C,≤ -4.2
12,A39C G68A A89G G128U A138G,≤ -4.2
13,C38G U44A G65C,≤ -4.2
14,A37C A40G A52U A60G G70C G86U A119C,≤ -4.2
15,C38U C105U C118G U139G,-1.24
16,C38U A73U C93U A107U G117U,≤ -4.2
17,C36U C93A G117U,-3.25
18,A39C C87U G94U U101C A147U,≤ -4.2
19,C38A C85A,-2.61
20,C36U A66C C69A U78G,≤ -4.2
21,C36U C51G C76G G81C A107G G143A,≤ -4.2
22,C36U A40G C108G G140A,≤ -4.2
23,A37C A49C G81A G92C A106G C108A A115U A137U G143U,≤ -4.2
24,A39C A41C G65A C96A C103A U111G,≤ -4.2

row,Variant,polymerase ribozyme fitness (log ratio)
1,A37U A52U C57U G74A C76U C93U C95U U109G,≤ -4.2
2,C38U C57A C87A,≤ -4.2
3,C38U A47G U53A G141C,-2.86
4,C36U A47G G68C G133C,≤ -4.2
5,A37G C51G A52G U53A A89C G136C A138U,≤ -4.2
6,C36U C87U,-1.6
7,C38A G58A C96G C129G G143A,-2.67
8,A37C C69G G70A C116A,-3.56
9,C36G C57G C72G C118U,≤ -4.2
10,A37G A60G C87U,-1.88
11,C38U A39C C95U,-2.34
12,C38A U82A G84U A120C,-1.37
13,A39G A47C C72A C103G C116U G128A,≤ -4.2
14,C38A C76U,-0.21
15,A37C C96U,-1.09
16,A37G C131U U134C,-1.56
17,C38U C63U A73G C118U A150G,-2.88
18,A37G U61G C93U A115C,-4.18
19,C35U U146C,0.279
20,A37G G67A C79G,≤ -4.2
21,C38U G81A C87G C95U C96A A97G A138C G141U,≤ -4.2
22,A37G C72U A97G U102G C118U,≤ -4.2
23,C35U U56A G143C,-2.48
24,A39G A41G G46C C51G U56A A60C C72U A97G U111C C125A,≤ -4.2

row,Variant,polymerase ribozyme fitness (log ratio)
1,A37U A52C C116G,-2.94
2,C38U C57G C75U G86A U148A,≤ -4.2
3,A37U C114U A115G A120U,-3.83
4,C38G C96A C114U,-2.91
5,C38U G42A C75G A91G C95U C105U A113U C118G,≤ -4.2
6,A37C C87U,-0.492
7,C38G C57A A115C U144G,-1.02
8,A37C U56A,-0.806
9,C36U U56A C76U G86A A115C,-3.51
10,A39C C54G G58C G117U G124U U134C,≤ -4.2
11,A37C C54U C96U,-0.249
12,A37C G92U,-0.276
13,C38A A89G C95G G124A,-2.76
14,C38G U55A C96A A150G,-2.63
15,A37C A41U A52C C118A,-3.42
16,A37G A41C U53C C85U U104C G128C C149G,≤ -4.2
17,A39C G80U C114U,≤ -4.2
18,C36U A37U U56A A91C C116G,≤ -4.2
19,C38U A41C C132U,-1.49
20,A37C U56A C85A C99G A107G G124A,≤ -4.2
21,A37U U55A A91G A98U U148A,≤ -4.2
22,C38A,-0.151
23,C38G,-0.296
24,C38U,0.0316

row,Variant,polymerase ribozyme fitness (log ratio)
1,C38U G65C G70U C85G U111G A115U U127G G140C U146G,≤ -4.2
2,A37G A52G C69A U144G,-4.11
3,C38U A47C C93A C125U,-3.16
4,C36A G48A C93U A113U C118G U144G A150U,≤ -4.2
5,A39C G50C G59C A97U C129A C149U,≤ -4.2
6,C38A U53A C87U,-1.39
7,A37C U127G,-3.83
8,A37C C108G,≤ -4.2
9,C36G G80U C85U C87A U109G U139C A142G,≤ -4.2
10,C36U C54A G68A G71A C95G A115U A122G,≤ -4.2
11,C38A C69A G133C A150C,≤ -4.2
12,C38U C51U C76A C79A A97U G100A C103G A106G A120G,≤ -4.2
13,C38U C93U,-1.06
14,C38U C95G A120U G152A,-3.59
15,C36U A64G G94A A110G,-4.2
16,C38U C96A G141A,-0.0442
17,A37U G42C,-3.9
18,C36U G58A A119G G140A,-4.18
19,A37C A52U C132U,-4.13
20,C38A G50C C96A,-4.12
21,C36A C87U,-3.89
22,C38A C95G C99U A138G,≤ -4.2
23,C38G C51U,-0.547
24,A37C A52C U53A G92A,≤ -4.2

row,Variant,polymerase ribozyme fitness (log ratio)
1,C38A A66G G70A,≤ -4.2
2,A37U C79U C116A,-4.15
3,A37G A41G C79A G92U C95U C123U,≤ -4.2
4,C38U U45G U55A A60U G71A,≤ -4.2
5,C36U C87U G143C,-3.81
6,A39C G86U,-4.18
7,A37C U45A C79U A97U U144A,≤ -4.2
8,C38G G68C C85G G126A U139G G140A C149G,≤ -4.2
9,A39G A47C,-1.49
10,A37C C63G C99A U111C C114U A119U,≤ -4.2
11,A39C C149U,-2.97
12,C38U C85G,-3.44
13,C36A C63U,-4.08
14,A37C C57G C76G A98G A138C G140U,-3.42
15,C38U G84A U139A,≤ -4.2
16,C36G C95A,-3.65
17,C36U G92C,-1.37
18,A37G C54U G59C C69U,-1.86
19,A37C A49C G124A U130G,≤ -4.2
20,C38G A66G U77G G83U A107U G128C A137U,≤ -4.2
21,C38U G71A G81A G83U C93A,≤ -4.2
22,A37G A60U G81A A97C A137G,-4.19
23,C36A A39G G59U C85A A98U A107C,≤ -4.2
24,A37C G86U C87U C108U A113G G117A,≤ -4.2

row,Variant,polymerase ribozyme fitness (log ratio)
1,C38U U55A,-0.159
2,C38A A91G,-3.39
3,A37G G50U A97C A137G,-3.75
4,C36G U130C,-3.89
5,C36A C93A C105G C125A,≤ -4.2
6,A39G A49G G70A C87A G94A C99G G126A,≤ -4.2
7,C36A G92A,-3.98
8,A37C U55A C72U G88C A98G C103G U127C U134A,≤ -4.2
9,C36A U82G U135C U145G G152U,-3.98
10,C38A C93A G136A,-1.47
11,A39C C105U G124A,-2.08
12,C38G C75G G84C C103A,≤ -4.2
13,A37C C54G G92U A97U A119U,≤ -4.2
14,C38U C54A C57G G143A,-4.08
15,C38A U44A A47U G86U C87G G100A A107G C118U,≤ -4.2
16,C36A G42C U55A A66C C69U C105G A122U G126A A142C,≤ -4.2
17,A37U A39G A49U G81C A91C G94A U146A,≤ -4.2
18,C38U C95G,-1.3
19,A37C G83A,-0.102
20,C36U C93U C96G C114G C116A A138C U139G U148C G152A,-4.1
21,A37C A97G,0.477
22,C36G A49C G58A G70C U82G A98U U104A A106G,≤ -4.2
23,A39C A91C A137G,≤ -4.2
